Experimental data reported in the supplement of paper PMC7877785.
± gives the uncertainty stated by the source.

Experiment: self-splicing fitness, log relative to wild type (ln ratio); higher = more splicing; Tetrahymena group I intron in knt gene, E. coli kanamycin selection, DiMSum; sequences stand for … in CUCUCU…GGAGGGAAAAGUUAUCAGGCAUGCACCUGGUAGCUAGUCUUUAAACCAAUAGAUUGCAUCGGUUUAAAAGGCAAGACCGUCAAAUUGCGGGAAAGGGGUCAACAGCCGUUCAGUACCAAGUCUCAGGGGAAACUUUGAGAUGGCCUUGCAAAGGGUAUGGUAAUAAGCUGACGGACAUGGUCCUAACCACGCAGCCAAGUCCUAAGUCAACAGAUCUUCUGUUGAUAUGGAUGCAGUUCACAGACUAAAUGUCGGUCGGGGAAGAUGUAUUCUUCUCAUAAGAUAUAGUCGGACCUCUCCUUAAUGGGAGCUAGCGGAUGAAGUGAUGCAACACUGGAGCCGCUGGGAACUAAUUUGUAUGCGAAAGUAUAUUGAUUAGUUUUGGAGUACUCGUGGUCG
Method in brief: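 Pooled colonies went to amplicon sequencing on an Illumina HiSeq 2500 after six replicate transformations. The plates were LB agar with 100 μg/mL carbenicillin, 50 μM IPTG and 0.2% rhamnose, with or without 25 μg/mL kanamycin, incubated overnight at 37°C or 30°C. The E. coli BL21(DE3) library had all eight P1ex-region intron nucleotides randomised, the intron placed in the knt kanamycin-resistance gene on pET-22b(+). DiMSum fitness is the error-weighted combination of replicate fold changes, kanamycin against none, normalised to wild type.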

Sequence | self-splicing fitness (ln) (30 °C) | self-splicing fitness (ln) (37 °C)
CAAAAGCAAUAUUACGAAAA | -2.35 ± 0.18 | -2.11 ± 0.2
CAAAAGCAAUAUUACGAACC | -1.63 ± 0.31 | -1.45 ± 0.28
CAAAAGCAAUAUUACGACAA | -1.85 ± 0.13 | -1.64 ± 0.15
CAAAAGCAAUAUUACGACCC | -1.54 ± 0.15 | -1.72 ± 0.32
CAAAAGCAAUAUUACGAGGA | -3.08 ± 0.19 | -2.14 ± 0.15
CAAAAGCAAUAUUACGAUAU | -4.43 ± 0.25 | -2.23 ± 0.18
CAAAAGCAAUAUUACGAUGA | -0.319 ± 0.074 | -0.167 ± 0.075
CAAAAGCAAUAUUACGAUUC | -2.41 ± 0.11 | -0.98 ± 0.089
CAAAAGCAAUAUUACGCCGC |  | -1.32 ± 0.48
CAAAAGCAAUAUUACGCCUG | -1.07 ± 0.13 | -0.273 ± 0.13
CAAAAGCAAUAUUACGCGUG | -3.22 ± 0.11 | -2.11 ± 0.14
CAAAAGCAAUAUUACGCUCA | -1.64 ± 0.11 | -0.465 ± 0.13
CAAAAGCAAUAUUACGCUGA | -3.25 ± 0.2 | -1.81 ± 0.15
CAAAAGCAAUAUUACGGAUU | -3.49 ± 0.1 | -2.87 ± 0.1
CAAAAGCAAUAUUACGGCGC | -2.33 ± 0.13 | -1.5 ± 0.18
CAAAAGCAAUAUUACGGCUG | -1.3 ± 0.088 | -0.592 ± 0.11
CAAAAGCAAUAUUACGGGAU | -3.95 ± 0.19 | -3.04 ± 0.22
CAAAAGCAAUAUUACGGGCC | -3.65 ± 0.27 | -2.28 ± 0.28
CAAAAGCAAUAUUACGGGCG | -0.0633 ± 0.084 | 0.608 ± 0.11
CAAAAGCAAUAUUACGGGGC | -3.66 ± 0.26 | -3.02 ± 0.23
CAAAAGCAAUAUUACGGGUU | -3.28 ± 0.14 | -2.46 ± 0.16
CAAAAGCAAUAUUACGGUAG | -0.372 ± 0.058 | -0.148 ± 0.074
CAAAAGCAAUAUUACGGUGG | -1.13 ± 0.052 | -0.335 ± 0.073
CAAAAGCAAUAUUACGUAAG | -0.419 ± 0.047 | 0.0644 ± 0.059
CAAAAGCAAUAUUACGUCAU | -2.71 ± 0.17 | -2.48 ± 0.22

Sequence | self-splicing fitness (ln) (30 °C) | self-splicing fitness (ln) (37 °C)
CAAAAGCAAUAUUACGUGAA | -2.73 ± 0.085 | -1.63 ± 0.099
CAAAAGCAAUAUUACGUGCU | -4.33 ± 0.2 | -2.27 ± 0.15
CAAAAGCAAUAUUACGUGGU | -3.65 ± 0.11 | -2.49 ± 0.11
CAAAAGCAAUAUUACGUUAU | -3.96 ± 0.13 | -2.5 ± 0.12
CAAAAGCAAUAUUACGUUUA | -2.19 ± 0.13 | -1.3 ± 0.13
CAACAGCAAUAUUACGAAAA | -2.73 ± 0.3 | -1.38 ± 0.26
CAACAGCAAUAUUACGAACG | 0.0149 ± 0.065 | 0.73 ± 0.084
CAACAGCAAUAUUACGAGAG | -3.41 ± 0.13 | -1.91 ± 0.11
CAACAGCAAUAUUACGAGCU | -3.61 ± 0.18 | -2.44 ± 0.17
CAACAGCAAUAUUACGCACC | -3.36 ± 0.34 | -0.879 ± 0.3
CAACAGCAAUAUUACGCCUG | -1.23 ± 0.088 | -0.914 ± 0.11
CAACAGCAAUAUUACGCGAA | -2.16 ± 0.16 | -1.61 ± 0.14
CAACAGCAAUAUUACGCGAC | -3.56 ± 0.12 | -1.5 ± 0.12
CAACAGCAAUAUUACGCGCA | -0.857 ± 0.085 | 0.0215 ± 0.087
CAACAGCAAUAUUACGCGCG | -0.385 ± 0.059 | -0.492 ± 0.082
CAACAGCAAUAUUACGCGGA | -1.6 ± 0.1 | -1.83 ± 0.091
CAACAGCAAUAUUACGCUAA | -2.36 ± 0.098 | -2.11 ± 0.12
CAACAGCAAUAUUACGGCAC | -2.31 ± 0.13 | -1.61 ± 0.13
CAACAGCAAUAUUACGGCGC | -1.94 ± 0.076 | -1.24 ± 0.096
CAACAGCAAUAUUACGGCGU | -2.15 ± 0.091 | -0.0717 ± 0.092
CAACAGCAAUAUUACGGGAG | -1.23 ± 0.051 | -1.03 ± 0.063
CAACAGCAAUAUUACGGGCC | -5.11 ± 0.46 | -1.48 ± 0.14
CAACAGCAAUAUUACGGGUU | -3.14 ± 0.15 | -1.78 ± 0.12
CAACAGCAAUAUUACGGUAC | -4.95 ± 0.28 | -3.34 ± 0.22
CAACAGCAAUAUUACGGUUA | -0.258 ± 0.048 | 0.275 ± 0.056

Sequence | self-splicing fitness (ln) (30 °C) | self-splicing fitness (ln) (37 °C)
CAACAGCAAUAUUACGUAGG | -0.482 ± 0.055 | 0.249 ± 0.069
CAACAGCAAUAUUACGUGCU | -3.48 ± 0.13 | -2.27 ± 0.12
CAAGAGCAAUAUUACGACCC | -2.19 ± 0.45 | 
CAAGAGCAAUAUUACGAGGG | -3.17 ± 0.16 | -2.75 ± 0.2
CAAGAGCAAUAUUACGAGUA |  | -1.56 ± 0.27
CAAGAGCAAUAUUACGAUCC | -2.49 ± 0.42 | -2.15 ± 0.5
CAAGAGCAAUAUUACGAUGC | -2.54 ± 0.32 | -2.31 ± 0.39
CAAGAGCAAUAUUACGAUUA | -1.92 ± 0.19 | -0.907 ± 0.21
CAAGAGCAAUAUUACGCACC | -3.75 ± 0.35 | 
CAAGAGCAAUAUUACGCAGG | -2.62 ± 0.13 | -2 ± 0.17
CAAGAGCAAUAUUACGCAGU | -4 ± 0.46 | 
CAAGAGCAAUAUUACGCCGA | -2.4 ± 0.23 | -1.04 ± 0.32
CAAGAGCAAUAUUACGCUCU | -3.49 ± 0.32 | -1.86 ± 0.27
CAAGAGCAAUAUUACGCUGC | -3.4 ± 0.41 | -2.01 ± 0.24
CAAGAGCAAUAUUACGGAUG | -2.89 ± 0.1 | -2.04 ± 0.12
CAAGAGCAAUAUUACGUCAA | -3.43 ± 0.43 | -2.73 ± 0.25
CAAGAGCAAUAUUACGUCGG | -1.4 ± 0.087 | -1.37 ± 0.11
CAAGAGCAAUAUUACGUGAG | -1.44 ± 0.087 | -0.683 ± 0.11
CAAGAGCAAUAUUACGUGCU | -4.39 ± 0.31 | -2.36 ± 0.17
CAAUAGCAAUAUUACGACAU | -3.694 ± 0.024 | -2.38 ± 0.037
CAAUAGCAAUAUUACGAUUA | -1.2 ± 0.12 | -0.352 ± 0.11
CAAUAGCAAUAUUACGCCAA | -2.96 ± 0.22 | -2.76 ± 0.2
CAAUAGCAAUAUUACGCCUU | -2.1 ± 0.23 | -0.997 ± 0.24
CAAUAGCAAUAUUACGCUAC | -3.14 ± 0.22 | -2.08 ± 0.26
CAAUAGCAAUAUUACGGCAC | -3.57 ± 0.2 | -3.06 ± 0.28

Sequence | self-splicing fitness (ln) (30 °C) | self-splicing fitness (ln) (37 °C)
CAAUAGCAAUAUUACGGCAG | -0.535 ± 0.078 | 0.191 ± 0.11
CAAUAGCAAUAUUACGGCCG | 0.102 ± 0.12 | 0.341 ± 0.16
CAAUAGCAAUAUUACGGCCU | -2.69 ± 0.21 | -3.6 ± 0.39
CAAUAGCAAUAUUACGGCGC | -3.81 ± 0.35 | -1.37 ± 0.19
CAAUAGCAAUAUUACGGGCC |  | -1.94 ± 0.29
CAAUAGCAAUAUUACGGGGG | -2.64 ± 0.19 | -2.01 ± 0.15
CAAUAGCAAUAUUACGGGGU | -4.27 ± 0.39 | -2.48 ± 0.23
CAAUAGCAAUAUUACGGUAU | -3.15 ± 0.15 | -2.42 ± 0.21
CAAUAGCAAUAUUACGUACC | -4.73 ± 0.32 | -3.09 ± 0.32
CAAUAGCAAUAUUACGUACU | -3.33 ± 0.13 | -1.8 ± 0.13
CAAUAGCAAUAUUACGUGCC | -2.98 ± 0.26 | -3.02 ± 0.32
CAAUAGCAAUAUUACGUUUC | -4.35 ± 0.2 | -3.13 ± 0.19
CACAAGCAAUAUUACGAAGU | -3.68 ± 0.16 | -1.43 ± 0.12
CACAAGCAAUAUUACGACUU | -3.49 ± 0.18 | -2.47 ± 0.21
CACAAGCAAUAUUACGAGCA | -2.96 ± 0.2 | -2.28 ± 0.17
CACAAGCAAUAUUACGAGGU | -3.59 ± 0.17 | -2.2 ± 0.18
CACAAGCAAUAUUACGAUAC | -3.58 ± 0.21 | -2.5 ± 0.29
CACAAGCAAUAUUACGCGAA | -3.43 ± 0.17 | -2.44 ± 0.14
CACAAGCAAUAUUACGCGAG | -1.89 ± 0.092 | -0.699 ± 0.091
CACAAGCAAUAUUACGCGCA | -0.607 ± 0.095 | -1.28 ± 0.1
CACAAGCAAUAUUACGCGGA | -3.17 ± 0.13 | -1.08 ± 0.084
CACAAGCAAUAUUACGCGUC | -2.54 ± 0.13 | -2.15 ± 0.18
